Measurements taken from patent US20210388087A1 (Chugai, published 2021).
Numbering of substitutions follows the chain as printed. Names and notes keep the numbering of the source.

B1: H183/L072 VH A54M (antibody, name in Kabat numbering, V domains shown)
VH: QVQLVESGGGLVQPGRSLRLSCAASGFTFSNAWMHWVRQAPGKGLEWVAQIKDKGNMYAAYYAPSVKGRFTISRDDSKNSIYLQMNSLKTEDTAVYYCHYVHYASASTVLPAFGVDAWGQGTTVTVSS
VL: DIVMTQSPLSLPVTPGEPASISCQASQELVHMNRNTYLHWYQQKPGQAPRLLIYKVSNRFPGVPDRFSGSGSGTDFTLKISRVEAEDVGVYYCAQGTSVPFTFGQGTKLEIK
B2: H183/L072 VH A54N (antibody, name in Kabat numbering, V domains shown)
VH: B1 VH with M57N
VL: B1 VL
B3: H183/L072 VH A54Q (antibody, name in Kabat numbering, V domains shown)
VH: B1 VH with M57Q
VL: B1 VL
B4: H183/L072 VH A54R (antibody, name in Kabat numbering, V domains shown)
VH: B1 VH with M57R
VL: B1 VL
B5: H183/L072 VH A54S (antibody, name in Kabat numbering, V domains shown)
VH: B1 VH with M57S
VL: B1 VL
B6: H183/L072 VH A54T (antibody, name in Kabat numbering, V domains shown)
VH: B1 VH with M57T
VL: B1 VL
B7: H183/L072 VH A54V (antibody, name in Kabat numbering, V domains shown)
VH: B1 VH with M57V
VL: B1 VL
B8: H183/L072 VH A54W (antibody, name in Kabat numbering, V domains shown)
VH: B1 VH with M57W
VL: B1 VL
B9: H183/L072 VH A54Y (antibody, name in Kabat numbering, V domains shown)
VH: B1 VH with M57Y
VL: B1 VL
B10: H183/L072 VH A56D (antibody, name in Kabat numbering, V domains shown)
VH: B1 VH with M57A, A59D
VL: B1 VL
B11: H183/L072 VH A56E (antibody, name in Kabat numbering, V domains shown)
VH: B1 VH with M57A, A59E
VL: B1 VL
B12: H183/L072 VH A56G (antibody, name in Kabat numbering, V domains shown)
VH: B1 VH with M57A, A59G
VL: B1 VL
B13: H183/L072 VH A56H (antibody, name in Kabat numbering, V domains shown)
VH: B1 VH with M57A, A59H
VL: B1 VL
B14: H183/L072 VH A56I (antibody, name in Kabat numbering, V domains shown)
VH: B1 VH with M57A, A59I
VL: B1 VL
B15: H183/L072 VH A56K (antibody, name in Kabat numbering, V domains shown)
VH: B1 VH with M57A, A59K
VL: B1 VL
B16: H183/L072 VH A56L (antibody, name in Kabat numbering, V domains shown)
VH: B1 VH with M57A, A59L
VL: B1 VL
B17: H183/L072 VH A56M (antibody, name in Kabat numbering, V domains shown)
VH: B1 VH with M57A, A59M
VL: B1 VL
B18: H183/L072 VH A56N (antibody, name in Kabat numbering, V domains shown)
VH: B1 VH with M57A, A59N
VL: B1 VL
B19: H183/L072 VH A56P (antibody, name in Kabat numbering, V domains shown)
VH: B1 VH with M57A, A59P
VL: B1 VL
B20: H183/L072 VH A56Q (antibody, name in Kabat numbering, V domains shown)
VH: B1 VH with M57A, A59Q
VL: B1 VL
B21: H183/L072 VH A56R (antibody, name in Kabat numbering, V domains shown)
VH: B1 VH with M57A, A59R
VL: B1 VL
B22: H183/L072 VH A56S (antibody, name in Kabat numbering, V domains shown)
VH: B1 VH with M57A, A59S
VL: B1 VL
B23: H183/L072 VH A56T (antibody, name in Kabat numbering, V domains shown)
VH: B1 VH with M57A, A59T
VL: B1 VL
B24: H183/L072 VH A56V (antibody, name in Kabat numbering, V domains shown)
VH: B1 VH with M57A, A59V
VL: B1 VL
B25: H183/L072 VH A56W (antibody, name in Kabat numbering, V domains shown)
VH: B1 VH with M57A, A59W
VL: B1 VL
B26: H183/L072 VH A56Y (antibody, name in Kabat numbering, V domains shown)
VH: B1 VH with M57A, A59Y
VL: B1 VL
B27: H183/L072 VH A57D (antibody, name in Kabat numbering, V domains shown)
VH: B1 VH with M57A, A60D
VL: B1 VL
B28: H183/L072 VH A57E (antibody, name in Kabat numbering, V domains shown)
VH: B1 VH with M57A, A60E
VL: B1 VL
B29: H183/L072 VH A57F (antibody, name in Kabat numbering, V domains shown)
VH: B1 VH with M57A, A60F
VL: B1 VL
B30: H183/L072 VH A57G (antibody, name in Kabat numbering, V domains shown)
VH: B1 VH with M57A, A60G
VL: B1 VL
B31: H183/L072 VH A57H (antibody, name in Kabat numbering, V domains shown)
VH: B1 VH with M57A, A60H
VL: B1 VL
B32: H183/L072 VH A57I (antibody, name in Kabat numbering, V domains shown)
VH: B1 VH with M57A, A60I
VL: B1 VL
B33: H183/L072 VH A57K (antibody, name in Kabat numbering, V domains shown)
VH: B1 VH with M57A, A60K
VL: B1 VL
B34: H183/L072 VH A57M (antibody, name in Kabat numbering, V domains shown)
VH: B1 VH with M57A, A60M
VL: B1 VL
B35: H183/L072 VH A57N (antibody, name in Kabat numbering, V domains shown)
VH: B1 VH with M57A, A60N
VL: B1 VL
B36: H183/L072 VH A57P (antibody, name in Kabat numbering, V domains shown)
VH: B1 VH with M57A, A60P
VL: B1 VL
B37: H183/L072 VH A57Q (antibody, name in Kabat numbering, V domains shown)
VH: B1 VH with M57A, A60Q
VL: B1 VL
B38: H183/L072 VH A57R (antibody, name in Kabat numbering, V domains shown)
VH: B1 VH with M57A, A60R
VL: B1 VL
B39: H183/L072 VH A57S (antibody, name in Kabat numbering, V domains shown)
VH: B1 VH with M57A, A60S
VL: B1 VL
B40: H183/L072 VH A57T (antibody, name in Kabat numbering, V domains shown)
VH: B1 VH with M57A, A60T
VL: B1 VL
B41: H183/L072 VH A57V (antibody, name in Kabat numbering, V domains shown)
VH: B1 VH with M57A, A60V
VL: B1 VL
B42: H183/L072 VH A57Y (antibody, name in Kabat numbering, V domains shown)
VH: B1 VH with M57A, A60Y
VL: B1 VL
B43: H183/L072 VH A60D (antibody, name in Kabat numbering, V domains shown)
VH: B1 VH with M57A, A63D
VL: B1 VL
B44: H183/L072 VH A60E (antibody, name in Kabat numbering, V domains shown)
VH: B1 VH with M57A, A63E
VL: B1 VL
B45: H183/L072 VH A60F (antibody, name in Kabat numbering, V domains shown)
VH: B1 VH with M57A, A63F
VL: B1 VL
B46: H183/L072 VH A60G (antibody, name in Kabat numbering, V domains shown)
VH: B1 VH with M57A, A63G
VL: B1 VL
B47: H183/L072 VH A60H (antibody, name in Kabat numbering, V domains shown)
VH: B1 VH with M57A, A63H
VL: B1 VL

Target: T1, Human CD137 ECD (human)
T1 construct: also called 4-1BB
Test: single mutant vs template dBBDu183H

T1 sequence (chain, as listed by the source limits assumed): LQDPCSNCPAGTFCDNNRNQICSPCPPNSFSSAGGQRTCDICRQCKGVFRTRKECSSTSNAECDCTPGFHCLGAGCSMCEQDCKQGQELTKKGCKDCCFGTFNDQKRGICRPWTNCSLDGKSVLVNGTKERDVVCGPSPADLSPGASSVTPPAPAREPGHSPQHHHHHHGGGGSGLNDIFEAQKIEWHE

Row | Binder | fold change of affinity [fold]
1 | B1 | 1
2 | B2 | 1.1
3 | B3 | 1
4 | B4 | 0.9
5 | B5 | 0.9
6 | B6 | 0.3
7 | B7 | 0.5
8 | B8 | 0.8
9 | B9 | 0.9
10 | B10 | 0.3
11 | B11 | 0.5
12 | B12 | 0.6
13 | B13 | 0.6
14 | B14 | 0.2
15 | B15 | 0.8
16 | B16 | 0.5
17 | B17 | 0.7
18 | B18 | 0.7
19 | B19 | 0.2
20 | B20 | 0.8
21 | B21 | 0.8
22 | B22 | 0.7
23 | B23 | 0.4
24 | B24 | 0.2

Row | Binder | fold change of affinity [fold]
25 | B25 | 0.3
26 | B26 | 0.3
27 | B27 | 1.2
28 | B28 | 0.9
29 | B29 | 0.1
30 | B30 | 0.9
31 | B31 | 0.5
32 | B32 | 0.1
33 | B33 | 0.9
34 | B34 | 0.7
35 | B35 | 0.3
36 | B36 | 1
37 | B37 | 0.9
38 | B38 | 0.5
39 | B39 | 0.8
40 | B40 | 0.6
41 | B41 | 0.5
42 | B42 | 0
43 | B43 | 0.6
44 | B44 | 0.8
45 | B45 | 1.2
46 | B46 | 0.8
47 | B47 | 1.3
